# Assay results taken from patent publication US20070020327A1.
# Where two headings read alike, the source gives them in different places.
# Columns and labels:
# HLA-A*0202 (human) [1] = test: inhibition of 125I-labelled standard peptide binding to purified HLA-A*0202, gel filtration
# HLA-A*0206 (human) [2] = test: inhibition of 125I-labelled standard peptide binding to purified HLA-A*0206, gel filtration
# HLA-A*0201 (human) [3] = test: inhibition of 125I-labelled standard peptide binding to purified HLA-A*0201, gel filtration
# HLA-A*6802 (human) [4] = test: inhibition of 125I-labelled standard peptide binding to purified HLA-A*6802, gel filtration
# HLA-A*0101 (human) [5] = test: competition with 125I-labeled standard peptide for purified HLA-A*0101, gel filtration
# HLA-A*0101 (human) [6] = test: competition with 125I-labelled standard peptide for purified HLA-A*0101, gel filtration
# HLA-A*0203 (human) [7] = test: inhibition of 125I-labelled standard peptide binding to purified HLA-A*0203, gel filtration
# HLA-A*0301 (human) [8] = test: competition with 125I-labelled standard peptide for purified HLA-A*0301, gel filtration; ratio to the A*0301 standard peptide 941.12 [..] (11 nM)
# HLA-A*1101 (human) [9] = test: competition with a 125I-labelled standard peptide for purified HLA-A*1101, gel filtration; settings: scale: ratio
# HLA-A*0301 (human) [10] = test: competition with 125I-labelled standard peptide on purified HLA-A*0301, gel filtration
# HLA-A*1101 (human) [11] = test: competition with 125I-labelled standard peptide for purified HLA-A*1101, gel filtration
# HLA-A*0201 (human) [12] = test: inhibition of 125I-labelled probe peptide binding to purified HLA; gel filtration; settings: remark: other sources report otherwise
# HLA-A*0202 (human) [13] = test: as above; settings: remark: other sources report otherwise
# HLA-A*0203 (human) [14] = test: as above; settings: remark: other sources report otherwise
# HLA-A*6802 (human) [15] = test: inhibition of 125I-labelled probe peptide binding to purified HLA, gel filtration
# HLA-A*0201 (human) [16] = test: as above
# HLA-A*0202 (human) [17] = test: as above
# HLA-A*0203 (human) [18] = test: as above
# HLA-A*0206 (human) [19] = test: as above
# HLA-A*0206 (human) [20] = test: inhibition of 125I-standard peptide binding to purified HLA, gel filtration; settings: remark: other sources report otherwise
# HLA-A*0201 (human) [21] = test: as above; settings: remark: other sources report otherwise
# HLA-A*0202 (human) [22] = test: as above; settings: remark: other sources report otherwise
# HLA-A*0203 (human) [23] = test: as above; settings: remark: other sources report otherwise
# [24] = remark: other sources report otherwise
binder,measurement,setting,value
"CAGLWTGGKDT (modifications not checked) [… (Kallikrein, position 198)]",binding affinity ratio (IC50 of standard peptide / IC50 of test peptide),HLA-A*0202 (human) [1],0.0003
same,binding affinity ratio (IC50 of standard peptide / IC50 of test peptide),HLA-A*0206 (human) [2],-0.0001
same,binding affinity ratio (IC50 of standard peptide / IC50 of test peptide),HLA-A*0201 (human) [3],0.0001
same,binding affinity ratio (IC50 of standard peptide / IC50 of test peptide),HLA-A*6802 (human) [4],-0.0002
"AGESFPGIY (modifications not checked) [… (PSM, position 701)]",binding affinity ratio (IC50 of standard peptide / IC50 of test peptide),HLA-A*0101 (human) [5],0.004
"EPALGTTCY (modifications not checked) [… (Kallikrein, position 145; PSA, position 141)]",binding affinity ratio (IC50 of standard peptide / IC50 of test peptide),HLA-A*0101 (human) [5],0.0011
"KAENIKKFLY (modifications not checked) [… (PSM, position 66)]",binding affinity ratio (IC50 of standard peptide / IC50 of test peptide),HLA-A*0101 (human) [5],0.0001
"LFEPPPPGY (modifications not checked) [… (PSM, position 143)]",binding affinity ratio (IC50 of standard peptide / IC50 of test peptide),HLA-A*0101 (human) [5],0.001
"LPERPSLY (modifications not checked) [LPERPSLY (PSA, position 232)]",binding affinity ratio (IC50 of standard peptide / IC50 of test peptide),HLA-A*0101 (human) [5],0.0002
"LTQLGMEQHY (modifications not checked) [… (PAP, position 70)]",binding affinity ratio (IC50 of standard peptide / IC50 of test peptide),HLA-A*0101 (human) [6]; [24],0.62
"CALPEKPA (modifications not checked) [CALPEKPA (Kallikrein, position 234)]",binding affinity ratio (IC50 of standard peptide / IC50 of test peptide),HLA-A*0202 (human) [1],-0.0001
same,binding affinity ratio (IC50 of standard peptide / IC50 of test peptide),HLA-A*0206 (human) [2],-0.0001
same,binding affinity ratio (IC50 of standard peptide / IC50 of test peptide),HLA-A*0203 (human) [7],-0.0001
same,binding affinity ratio (IC50 of standard peptide / IC50 of test peptide),HLA-A*0201 (human) [3],-0.0001
same,binding affinity ratio (IC50 of standard peptide / IC50 of test peptide),HLA-A*6802 (human) [4],-0.0001
"RGAVEPDRY (modifications not checked) [… (PSM, position 363)]",binding affinity ratio (IC50 of standard peptide / IC50 of test peptide),HLA-A*0101 (human) [6],0.0001
"TYELVEKFY (modifications not checked) [… (PSM, position 558)]",binding affinity ratio (IC50 of standard peptide / IC50 of test peptide),HLA-A*0101 (human) [6],0.001
"WGEVKRQIY (modifications not checked) [… (PSM, position 725)]",binding affinity ratio (IC50 of standard peptide / IC50 of test peptide),HLA-A*0101 (human) [6],0.001
CSGKIVIARY (modifications not checked) [PSM 196 peptide …],binding affinity ratio (IC50 of standard peptide / IC50 of test peptide),HLA-A*0301 (human) [8]; [24],0.06
CSPSCPLER (modifications not checked) [PAP 347 peptide …],binding affinity ratio (IC50 of standard peptide / IC50 of test peptide),HLA-A*0301 (human) [8],0.004
DALFDIESK (modifications not checked) [PSM 710 peptide …],binding affinity ratio (IC50 of standard peptide / IC50 of test peptide),HLA-A*0301 (human) [8],0.0006
DIESKVDPSK (modifications not checked) [PSM 714 peptide …],binding affinity ratio,HLA-A*1101 (human) [9],0.0002
same,binding affinity ratio (IC50 of standard peptide / IC50 of test peptide),HLA-A*0301 (human) [8],0.0003
DMSLLKNR (modifications not checked) [PSA 98 peptide DMSLLKNR],binding affinity ratio,HLA-A*1101 (human) [9],0.0001
same,binding affinity ratio (IC50 of standard peptide / IC50 of test peptide),HLA-A*0301 (human) [8],0.0003
"LLEKMGGSA (modifications not checked) [… (PSM, position 305)]",binding affinity ratio (IC50 of standard peptide / IC50 of test peptide),HLA-A*0301 (human) [10],0.0006
"LLHETDSAVA (modifications not checked) [… (PSM, position 4)]",binding affinity ratio (IC50 of standard peptide / IC50 of test peptide),HLA-A*0301 (human) [10],0.0005
"LLPPYASCH (modifications not checked) [… (PAP, position 306)]",binding affinity ratio (IC50 of standard peptide / IC50 of test peptide),HLA-A*0301 (human) [10],0.001
"LLSYPNKTH (modifications not checked) [… (PSM, position 116)]",binding affinity ratio (IC50 of standard peptide / IC50 of test peptide),HLA-A*0301 (human) [10],0.0006
"LSLLSLYGIH (modifications not checked) [… (PAP, position 241)]",binding affinity ratio (IC50 of standard peptide / IC50 of test peptide),HLA-A*0301 (human) [10],0.0003
"CALPEKPAVYT (modifications not checked) [… (Kallikrein, position 234)]",binding affinity ratio (IC50 of standard peptide / IC50 of test peptide),HLA-A*0201 (human) [3]; [24],0.0008
same,binding affinity ratio (IC50 of standard peptide / IC50 of test peptide),HLA-A*6802 (human) [4]; [24],-0.0002
DTFPTDPIK (modifications not checked) [PAP 51 peptide …],binding affinity ratio,HLA-A*1101 (human) [9],0.0001
DVLLSYPNK (modifications not checked) [PSM 114 peptide …],binding affinity ratio,HLA-A*1101 (human) [9],0.001
EIASKFSER (modifications not checked) [PSM 641 peptide …],binding affinity ratio,HLA-A*1101 (human) [9],0.0002
GMPEGDLVY (modifications not checked) [PSM 168 peptide …],binding affinity ratio (IC50 of the standard peptide / IC50 of the test peptide),HLA-A*1101 (human) [11],0.0002
TAAHCIRNK (modifications not checked) [PSA 58 …],binding affinity ratio (IC50 of standard peptide / IC50 of test peptide),HLA-A*1101 (human) [11]; [24],0.014
TGQVFQVSH (modifications not checked) [PSA 82 …],binding affinity ratio (IC50 of standard peptide / IC50 of test peptide),HLA-A*1101 (human) [11],0.0002
TLRGAVEPDR (modifications not checked) [PSM 361 …],binding affinity ratio (IC50 of standard peptide / IC50 of test peptide),HLA-A*1101 (human) [11],0.0002
TLVFRHGDR (modifications not checked) [PAP 39 …],binding affinity ratio (IC50 of standard peptide / IC50 of test peptide),HLA-A*1101 (human) [11],0.0002
"CLKKNSQV (modifications not checked) [CLKKNSQV (Kallikrein, position 66)]",binding affinity ratio (IC50 of standard peptide / IC50 of test peptide),HLA-A*0202 (human) [1],0.0006
same,binding affinity ratio (IC50 of standard peptide / IC50 of test peptide),HLA-A*0206 (human) [2],-0.0001
same,binding affinity ratio (IC50 of standard peptide / IC50 of test peptide),HLA-A*0203 (human) [7],0.0006
same,binding affinity ratio (IC50 of standard peptide / IC50 of test peptide),HLA-A*0201 (human) [3],0.0001
same,binding affinity ratio (IC50 of standard peptide / IC50 of test peptide),HLA-A*6802 (human) [4],-0.0001
"CLKKNSQVWL (modifications not checked) [… (Kallikrein, position 66)]",binding affinity ratio (IC50 of standard peptide / IC50 of test peptide),HLA-A*0206 (human) [2]; [24],0.0002
same,binding affinity ratio (IC50 of standard peptide / IC50 of test peptide),HLA-A*0201 (human) [3]; [24],0.0001
same,binding affinity ratio (IC50 of standard peptide / IC50 of test peptide),HLA-A*6802 (human) [4]; [24],-0.0001
GVSIWNPIV (modifications not checked) [peptide 60.0207 (PAP.128.V9)],IC50,HLA-A*0201 (human) [12],455 nM
same,IC50,HLA-A*0202 (human) [13],269 nM
same,IC50,HLA-A*0203 (human) [14],909 nM
ALDVYNGLL (modifications not checked) [peptide 1177.02 (PAP.299)],IC50,HLA-A*0201 (human) [12],73 nM
same,IC50,HLA-A*0203 (human) [14],256 nM
SLQCVSLHL (modifications not checked) [Peptide 60.0191 (HuK2.170) …],IC50,HLA-A*6802 (human) [15]; [24],2580 nM
same,IC50,HLA-A*0201 (human) [16]; [24],500 nM
same,IC50,HLA-A*0202 (human) [17]; [24],51 nM
same,IC50,HLA-A*0203 (human) [18]; [24],417 nM
SLQCVSLHLL (modifications not checked) [Peptide 1419.66 (HuK2.170) …],IC50,HLA-A*0206 (human) [19]; [24],446 nM
same,IC50,HLA-A*6802 (human) [15]; [24],5000 nM
same,IC50,HLA-A*0201 (human) [16]; [24],263 nM
same,IC50,HLA-A*0202 (human) [17]; [24],4.9 nM
SLQCVSLHLV (modifications not checked) [Peptide 1418.52 (HuK2.170.V10) …],IC50,HLA-A*0206 (human) [19],5.2 nM
same,IC50,HLA-A*6802 (human) [15],205 nM
same,IC50,HLA-A*0201 (human) [16],13 nM
same,IC50,HLA-A*0202 (human) [17],6.3 nM
same,IC50,HLA-A*0203 (human) [18],2.8 nM
HLLSNDMCARV (modifications not checked) [Peptide 1418.67 (HuK2.177.V11) …],IC50,HLA-A*0206 (human) [19]; [24],37 nM
same,IC50,HLA-A*6802 (human) [15]; [24],860 nM
same,IC50,HLA-A*0202 (human) [17]; [24],1.3 nM
same,IC50,HLA-A*0203 (human) [18]; [24],5.3 nM
LTLSVTWIGA (modifications not checked),binding affinity ratio (IC50 standard peptide / IC50 test peptide) (ratio to standard peptide),HLA-A*0206 (human) [20],0.011
same,binding affinity ratio (IC50 standard peptide / IC50 test peptide) (ratio to standard peptide),HLA-A*0201 (human) [21],0.0018
same,binding affinity ratio (IC50 standard peptide / IC50 test peptide) (ratio to standard peptide),HLA-A*0202 (human) [22],0.045
same,binding affinity ratio (IC50 standard peptide / IC50 test peptide) (ratio to standard peptide),HLA-A*0203 (human) [23],0.082
LTLSVTWIGAA (modifications not checked),binding affinity ratio (IC50 standard peptide / IC50 test peptide) (ratio to standard peptide),HLA-A*0206 (human) [20],0.0025
same,binding affinity ratio (IC50 standard peptide / IC50 test peptide) (ratio to standard peptide),HLA-A*0201 (human) [21],0.0008
same,binding affinity ratio (IC50 standard peptide / IC50 test peptide) (ratio to standard peptide),HLA-A*0202 (human) [22],0.0014
same,binding affinity ratio (IC50 standard peptide / IC50 test peptide) (ratio to standard peptide),HLA-A*0203 (human) [23],0.037
